The test deals with T1, His-mouse IKKβ (purified) (mouse, UniProt O88351 1-757).
T1 sequence (looked up): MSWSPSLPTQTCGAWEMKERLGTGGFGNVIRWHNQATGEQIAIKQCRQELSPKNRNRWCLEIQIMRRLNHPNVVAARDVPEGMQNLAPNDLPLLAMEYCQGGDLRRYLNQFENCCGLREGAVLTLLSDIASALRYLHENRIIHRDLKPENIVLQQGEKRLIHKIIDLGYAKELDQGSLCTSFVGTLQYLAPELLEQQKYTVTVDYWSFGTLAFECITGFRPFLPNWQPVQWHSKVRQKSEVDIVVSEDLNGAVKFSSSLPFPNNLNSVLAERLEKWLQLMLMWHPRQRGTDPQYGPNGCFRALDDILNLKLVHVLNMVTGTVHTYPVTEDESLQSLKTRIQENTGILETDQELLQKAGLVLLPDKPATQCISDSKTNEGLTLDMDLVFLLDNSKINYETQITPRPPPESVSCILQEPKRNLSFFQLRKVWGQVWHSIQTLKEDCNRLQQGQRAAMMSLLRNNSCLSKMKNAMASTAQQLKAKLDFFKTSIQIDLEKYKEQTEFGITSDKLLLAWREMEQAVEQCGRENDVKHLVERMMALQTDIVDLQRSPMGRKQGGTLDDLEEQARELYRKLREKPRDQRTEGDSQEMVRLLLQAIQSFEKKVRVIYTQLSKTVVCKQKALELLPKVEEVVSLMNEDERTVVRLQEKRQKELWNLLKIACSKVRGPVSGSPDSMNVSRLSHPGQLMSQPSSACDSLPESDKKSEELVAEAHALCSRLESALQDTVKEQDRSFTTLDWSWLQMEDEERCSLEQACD
The test can be described thus: pull-down.

B1: GST-mouse RMP-WT (natural protein, UniProt Q3TLD5 1-531, looked up)
chain: MEPPSEPEPEPQPLAEASAAAPLRAPEVARLREEQEKVVTNCQEKIQHWEKVDNDYSALQERLRTLPDKLSYDVMVPFGPLAFMPGKLVHTNEVTVLLGDNWFAKCSAKQAVGLVEHRKEHVRKTIDDFKKVLKNFESRVEFTEDLQKMSDAAGDFVDIREEIKSDFEFKGKQRIAHKPHSKPKTSDIFEADFENGVKPKNTFDADELWARLEELERQEELLGELESKPDTVIANGEDRVSSEEEKEGADTGVNVVSPVTDSSAASSCKRRAGNAGLPNGQVNSLNYSVNGSNSYHSNKDDDEEEEDDDDDDDEDDDNESDHAISADNSIPTIYFSHTVEPKRVRINTGKNTTLKFSEKKEEAKRKRKSGAGSHATHELPAIKSPADIYRVFVDVVNGEYVPRKSILKSRSRENSVCSDTSESSAADVEDRRGLLRSTSSEEAVATEAGGSSLDELQENHPKKPLPSGVSEAFSGTVIEKEFLSPSLAPYSAIAHHALPTIPERKEVPSEVSEEPTKRVSKFRAARLQQRS
In the case of B1, the binding result is reported as “binds”.

B2: GST-mouse RMP-S439A (natural protein, UniProt Q3TLD5 1-531, looked up)
chain: MEPPSEPEPEPQPLAEASAAAPLRAPEVARLREEQEKVVTNCQEKIQHWEKVDNDYSALQERLRTLPDKLSYDVMVPFGPLAFMPGKLVHTNEVTVLLGDNWFAKCSAKQAVGLVEHRKEHVRKTIDDFKKVLKNFESRVEFTEDLQKMSDAAGDFVDIREEIKSDFEFKGKQRIAHKPHSKPKTSDIFEADFENGVKPKNTFDADELWARLEELERQEELLGELESKPDTVIANGEDRVSSEEEKEGADTGVNVVSPVTDSSAASSCKRRAGNAGLPNGQVNSLNYSVNGSNSYHSNKDDDEEEEDDDDDDDEDDDNESDHAISADNSIPTIYFSHTVEPKRVRINTGKNTTLKFSEKKEEAKRKRKSGAGSHATHELPAIKSPADIYRVFVDVVNGEYVPRKSILKSRSRENSVCSDTSESSAADVEDRRGLLRSTASEEAVATEAGGSSLDELQENHPKKPLPSGVSEAFSGTVIEKEFLSPSLAPYSAIAHHALPTIPERKEVPSEVSEEPTKRVSKFRAARLQQRS
As for B2, the binding result is reported as “binds”.

Values taken from paper PMC12150503 (Cell Communication and Signaling : CCS, 2025).
